Assay results reported in patent US9199028B2, “Use of entrained neutrophils to treat metastatic and micrometastatic disease in at risk patients” (MEMORIAL SLOAN-KETTERING CANCER CENTER, priority 2010, dated 2015).
“Also recorded” adds a separate entry of the source.

Tests used:
neutrophils = experiment: In vivo rhG-CSF administration (neutrophil mobilization and lung sequestration); set-up: species or system mouse; conditions: mice
Experimental: Mice were orthotopically injected with 5×10^6 luciferase labelled 4T1 cells. 24 hours later Apocynin (2.4 g/liter) was administered in sugar sweetened drinking water. Control animals were treated with sugar sweetened water. Drinking water for both Apocynin treated and control mice were replaced every two days. Time-Lapse Microscopy 20,000 4T1 cells were labelled with CellTracker-Red (molecular Probes) according to the manufacturer instructions and plated on a chamber slide. 4 hours later, 400,000 neutrophils, isolated from 4T1 tumour-bearing Balb/c Ube-GFP mice, were added to the culture. Live imaging of Caspase 3 activation was done by labelling the tumour cells with the Caspase 3 substrate NucView 488 (Biotium) prior to the addition of GFP negative TENs. Images were taken every 10 minutes using the MetaMorph imaging system. Neutrophil Transfer Female nude mice were injected with 5×10^4 luciferase labelled 4T1 cells to the tail vein. 4 hours later, the mice were injected with 5×10^6 TENs or G-CSF mobilized neutrophils into the tail vein. Control mice were injected with vehicle. Formation of lung metastases was monitored using the IVIS-200 optical in vivo imaging system. Chemokine Administration rhG-CSF (Neupogen, Amgen) was administered daily (250 microg/kg/day) s.c. for 4 consecutive days. In vitro neutrophil stimulation—neutrophils were isolated from naïve mice and co-cultured with tumour cells in the presence of mCCL2, mCCL5 (both from R&D) or rhG-CSF (all at 20 ng/ml) or with TGF-Beta (R&D) (up to 200 pMolar). Human neutrophils purified from healthy volunteers were stimulated in vitro with hCCL2, hCCL5, hCCL3, hCCL4, hCXCL1, hCXCL12 and hCXCL16 (all from R&D at 100 ng/ml) or with rhG-CSF (20 ng/ml). Statistical Analysis For statistical analysis, the data is presented as mean±SEM and were analyses using Students t tests. Differences were considered significant when p<0.05.
In vivo administration of Apocynin: Mice were orthotopically injected with 5×10^6 luciferase labelled 4T1 cells. […] Formation of lung metastases was monitored using the IVIS-200 optical in vivo imaging system. […]

4T1 cells = experiment: In vivo stimulation of neutrophils with chemokines, purified neutrophils co-cultured with 4T1 cells; type: cell-based, mouse; conditions: healthy mice treated in vivo with G-CSF alone or G-CSF plus chemokine
Experimental: A. To test which chemokines may participate in the stimulation of neutrophils, neutrophils purified from healthy mice were co-culture with luciferase labeled 4T1 cells in the presence (20 ng/ml of chemokine) or absence of certain chemokines for an overnight incubation. […] B. To test which chemokines are sufficient for in vivo stimulation of neutrophils healthy mice were treated with G-CSF (to boost neutrophil numbers) and either CCL2, CCL5 or CXCL1. Control mice were treated with G-CSF alone. Neutrophils were purified from these mice and co-cultured with Luciferase-labeled 4T1 cells. […] Conclusion—CCL2 and to a lesser degree CCL5 can stimulate tumor cell killing both in vitro and in vivo.

B1: rhG-CSF: recombinant methionyl human granulocyte colony-stimulating factor (Neupogen, Amgen) (protein, chains of the INN, looked up)
chain: MTPLGPASSLPQSFLLKCLEQVRKIQGDGAALQEKLCATYKLCHPEELVLLGHSLGIPWAPLSSCPSQALQLAGCLSQLHSGLFLYQGLLQALEGISPELGPTLDTLQLDVADFATTIWQQMEELGMAPALQPTQGAMPAFASAFQRRAGGVLVASHLQSFLEVSYRVLRHLAQP
modifications: N-terminal methionine
- circulating neutrophils after rhG-CSF administration (neutrophils; 250 μg/kg/day s.c.): significant increase in circulating and lung-associated neutrophils; also recorded: significant increase in circulating and lung-associated neutrophil numbers
- increase of circulating neutrophil numbers (neutrophils; 250 ug/kg/day s.c. for 4 consecutive days): 2-4 fold
- lung-associated neutrophils (Ly-6G or myeloperoxidase immunohistochemistry) (neutrophils; rhG-CSF administration): increase in lung-associated neutrophils
- viability of 4T1 cells co-cultured with neutrophils purified from chemokine treated mice (4T1 cells): did not induce a reduction in cell viability
